Experimental data from patent US20180155415A1 (published 2018).

Tests used:
[1] = target: T1, mouse NGF (m-NGF, Alomone) (mouse, UniProt P01139 122-241); experiment: SPR (BIAcore 2000), antibody immobilized by amine coupling, m-NGF injected
T1 construct: mature
Procedure: For m-NGF binding, the immobilization of the antibody was of 3000 resonance units (RU) in the experiment of panel A and of 6000 RU in the experiment of panel B. The injected concentrations of the m-NGF are indicated on top of each curve.
(§1) Experiments were performed on CMS5 chips with amine coupling, using a BIAcore 2000 machine. Coupling was performed with a specific kit purchased at BIAcore and the coupling reaction was carried out according to manufacturer's instructions.
(§2) Anti-NGF antibodies were immobilized on chip, while mouse NGF (m-NGF, Alomone) or recombinant mouse proNGF (rm-proNGF) were injected at decreasing concentrations to obtain binding curves.

[2] = target: T2, recombinant mouse proNGF (rm-proNGF) (mouse, UniProt P01139 19-241); experiment: SPR (BIAcore 2000), antibody immobilized (3000 RU), rm-proNGF injected, kinetic analysis
T2 construct: Pro-form of NGF
Procedure: For rm-proNGF binding (panel C), the immobilization of the antibody was of 3000 RU.
as §1, §2

T2 sequence (P01139 19-241): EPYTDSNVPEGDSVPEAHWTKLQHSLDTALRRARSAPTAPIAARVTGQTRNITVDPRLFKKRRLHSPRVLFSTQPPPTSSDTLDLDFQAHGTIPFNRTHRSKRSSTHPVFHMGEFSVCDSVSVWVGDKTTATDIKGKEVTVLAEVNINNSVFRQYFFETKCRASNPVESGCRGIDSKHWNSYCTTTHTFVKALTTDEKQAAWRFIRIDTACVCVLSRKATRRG
T1 sequence (P01139 122-241): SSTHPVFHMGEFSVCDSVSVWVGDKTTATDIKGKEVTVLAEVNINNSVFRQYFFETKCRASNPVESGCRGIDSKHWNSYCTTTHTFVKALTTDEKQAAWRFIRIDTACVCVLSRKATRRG

B1: αD11 anti-NGF antibody (antibody, V domains shown)
VH: QVQLKESGPGLVQPSQTLSLTCTVSGFSLTNNNVNWVRQATGRGLEWMGGVWAGGATDYNSALKSRLTITRDTSKSQVFLKMHSLQSEDTATYYCARDGGYSSSTLYAMDAWGQGTTVTVSA
VL: DIQMTQSPASLSASLGETVTIECRASEDIYNALAWYQQKPGKSPQLLIYNTDTLHTGVPSRFSGSGSGTQYSLKINSLQSEDVASYFCQHYFHYPRTFGGGTKLELK
notes: Rat monoclonal antibody purified from hybridoma supernatant and immobilized on the chip; The tie to αD11 is indirect; also called alphaD11; aD11
With B1 the Ka [1] was 3.55e+11 M⁻¹, the Kd [1] was 2.81 pM and the Ka [2] was 1.2e+09 M⁻¹. The Kd [2] was 1900 pM.
